Experimental data: PMC5636895
Ends that are not written are not given here.

Experiments:
[1] = molecular target: platelet integrin αIIbβ3 (human) (UniProt P05106); experiment: optical trap-based force spectroscopy; as a7, with free γC-12 or cRGDFK present; concentrations not given
[2] = molecular target: platelet integrin αIIbβ3 (human) (UniProt P05106); experiment: optical trap-based force spectroscopy; as a5, with free γC-12 or cRGDFK present; concentrations not given
[3] = molecular target: platelet integrin αIIbβ3 (human) (UniProt P05106); experiment: optical trap-based force spectroscopy; as a1, with a competitive antagonist of αIIbβ3 (γC-12, cRGDFK or eptifibatide) present; concentrations not given
[4] = molecular target: monomeric fibrin (human) (UniProt P02679); experiment: optical trap-based force spectroscopy; Mn^2+-activated αIIbβ3 on a laser-trapped latex bead tapped against a silica pedestal covalently coated with monomeric fibrin; 0.1 M HEPES, pH 7.4, 2 mg/ml BSA, 0.1% Triton X-100; two-state fit of the rupture force profile
Chain of UniProt P02679 (P02679 whole entry, looked up): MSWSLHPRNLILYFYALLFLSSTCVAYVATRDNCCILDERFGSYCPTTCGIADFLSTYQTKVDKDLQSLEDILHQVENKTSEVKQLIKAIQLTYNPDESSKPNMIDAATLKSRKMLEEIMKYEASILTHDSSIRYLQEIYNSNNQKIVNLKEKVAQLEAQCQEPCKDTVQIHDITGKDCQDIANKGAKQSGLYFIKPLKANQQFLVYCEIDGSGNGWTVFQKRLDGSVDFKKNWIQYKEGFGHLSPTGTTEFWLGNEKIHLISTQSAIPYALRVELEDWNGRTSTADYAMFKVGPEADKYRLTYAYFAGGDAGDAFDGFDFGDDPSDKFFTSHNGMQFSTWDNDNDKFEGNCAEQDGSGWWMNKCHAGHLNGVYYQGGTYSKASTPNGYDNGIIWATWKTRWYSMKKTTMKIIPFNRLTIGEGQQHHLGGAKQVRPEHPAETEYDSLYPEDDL

[5] = molecular target: polymerized fibrin (human) (UniProt P02679); experiment: optical trap-based force spectroscopy; as a1, but with non-activated αIIbβ3 (no Mn^2+ activation) on the bead
[6] = molecular target: polymerized fibrin (human) (UniProt P02679); experiment: optical trap-based force spectroscopy; Mn^2+-activated αIIbβ3 (or BSA) on a laser-trapped 2.0 µm latex bead tapped against the edge of a fibrin clot in a flow chamber; 0.1 M HEPES, pH 7.4, 2 mg/ml BSA, 0.1% Triton X-100; 5 Hz, 800 nm amplitude; clot from re-calcified plasma or from purified fibrinogen, which one gave the tabulated data is not given; two-state fit of the rupture force profile
[7] = molecular target: fibrinogen (human) (UniProt P02671); experiment: optical trap-based force spectroscopy; Mn^2+-activated αIIbβ3 on a laser-trapped latex bead tapped against a silica pedestal covalently coated with fibrinogen; 0.1 M HEPES, pH 7.4, 2 mg/ml BSA, 0.1% Triton X-100; two-state fit of the rupture force profile
Chain of UniProt P02671 (P02671 36-866, chain 1 of 3): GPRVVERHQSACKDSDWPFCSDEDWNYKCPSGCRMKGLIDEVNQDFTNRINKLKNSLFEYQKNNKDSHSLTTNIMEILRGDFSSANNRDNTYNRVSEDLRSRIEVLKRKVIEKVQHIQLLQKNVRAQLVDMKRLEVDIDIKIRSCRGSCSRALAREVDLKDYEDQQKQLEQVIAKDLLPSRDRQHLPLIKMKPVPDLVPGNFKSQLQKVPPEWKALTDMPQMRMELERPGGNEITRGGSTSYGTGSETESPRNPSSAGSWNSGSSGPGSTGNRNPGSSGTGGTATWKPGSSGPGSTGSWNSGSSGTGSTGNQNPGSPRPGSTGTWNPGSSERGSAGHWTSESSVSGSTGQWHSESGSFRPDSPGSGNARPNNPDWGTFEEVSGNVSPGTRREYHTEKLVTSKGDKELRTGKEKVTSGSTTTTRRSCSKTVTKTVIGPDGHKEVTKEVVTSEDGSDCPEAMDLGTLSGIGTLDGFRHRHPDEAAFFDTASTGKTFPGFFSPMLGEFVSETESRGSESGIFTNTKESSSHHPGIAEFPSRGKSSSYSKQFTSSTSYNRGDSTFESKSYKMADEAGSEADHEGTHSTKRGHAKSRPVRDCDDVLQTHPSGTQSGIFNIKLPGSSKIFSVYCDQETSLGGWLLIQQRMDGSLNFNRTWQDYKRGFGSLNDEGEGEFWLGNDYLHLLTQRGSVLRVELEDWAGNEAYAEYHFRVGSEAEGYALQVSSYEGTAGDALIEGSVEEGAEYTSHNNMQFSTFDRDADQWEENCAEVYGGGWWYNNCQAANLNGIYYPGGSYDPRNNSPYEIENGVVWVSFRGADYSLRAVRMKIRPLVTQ
Chain of UniProt P02671 (P02675 45-491, chain 2 of 3, further chain): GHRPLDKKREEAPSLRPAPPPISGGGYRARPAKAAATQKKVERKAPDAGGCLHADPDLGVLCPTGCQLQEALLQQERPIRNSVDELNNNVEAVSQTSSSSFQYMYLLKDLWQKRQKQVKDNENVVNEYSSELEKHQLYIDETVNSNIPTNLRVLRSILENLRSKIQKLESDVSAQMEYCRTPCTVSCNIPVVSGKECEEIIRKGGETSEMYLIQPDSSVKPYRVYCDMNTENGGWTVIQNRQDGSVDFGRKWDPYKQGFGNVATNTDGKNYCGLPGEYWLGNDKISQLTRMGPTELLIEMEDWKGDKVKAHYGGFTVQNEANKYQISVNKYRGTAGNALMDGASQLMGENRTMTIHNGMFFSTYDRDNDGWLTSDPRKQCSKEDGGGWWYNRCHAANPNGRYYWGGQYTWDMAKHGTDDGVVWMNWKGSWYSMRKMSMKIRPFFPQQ
Chain of UniProt P02671 (P02679 other isoform, or with tags, fused parts or gaps, chain 3 of 3, further chain): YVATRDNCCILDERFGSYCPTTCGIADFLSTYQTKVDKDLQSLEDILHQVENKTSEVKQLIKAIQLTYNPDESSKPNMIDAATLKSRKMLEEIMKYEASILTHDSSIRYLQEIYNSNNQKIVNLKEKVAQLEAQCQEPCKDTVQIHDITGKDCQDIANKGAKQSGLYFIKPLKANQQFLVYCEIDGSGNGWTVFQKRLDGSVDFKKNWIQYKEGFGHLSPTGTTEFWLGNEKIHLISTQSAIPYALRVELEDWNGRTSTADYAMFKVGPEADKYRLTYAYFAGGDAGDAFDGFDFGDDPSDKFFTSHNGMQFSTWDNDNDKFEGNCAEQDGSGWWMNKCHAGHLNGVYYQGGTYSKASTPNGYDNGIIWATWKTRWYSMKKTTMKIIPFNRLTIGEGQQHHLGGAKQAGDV

fibrinogen γC-dodecapeptide (from UniProt P02679-2 426-437)
cumulative binding probability of αIIbβ3 to fibrinogen with γC-12 present, rupture forces 30–60 pN [1]: 1.8% | cumulative binding probability of αIIbβ3 to fibrinogen with γC-12 present, rupture forces >60 pN [1]: 0.2% | cumulative binding probability of αIIbβ3 to m-fibrin with γC-12 present, rupture forces 30–60 pN [2]: 7.4% | cumulative binding probability of αIIbβ3 to m-fibrin with γC-12 present, rupture forces >60 pN [2]: 12.3% | cumulative binding probability of αIIbβ3 to p-fibrin with γC-12 present, rupture forces 30–60 pN [3]: 2.1% | cumulative binding probability of αIIbβ3 to p-fibrin with γC-12 present, rupture forces >60 pN [3]: 0.8%

platelet integrin αIIbβ3 (from UniProt P05106 27-788) (receptor)
cumulative binding probability, rupture forces 30–60 pN [4]: 21% | cumulative binding probability, rupture forces >60 pN [4]: 22% | highest rupture force [4]: < 140 pN | initial probability of the high-affinity state (two-state fit) [4]: 0.0181 | peak of the strong rupture forces [4]: 70 to 80 pN | cumulative binding probability, rupture forces 30–60 pN [5]: 4.7% | cumulative binding probability, rupture forces >60 pN [5]: 1.7% | cumulative binding probability, rupture forces 30–60 pN [6]: 4.6% | cumulative binding probability, rupture forces >60 pN [6]: 3.2% | initial probability of the high-affinity state (two-state fit) [6]: 0.014 | peak of the strong rupture forces [6]: 70 to 80 pN | cumulative binding probability, rupture forces 30–60 pN [7]: 4.8% | cumulative binding probability, rupture forces >60 pN [7]: 3.6% | highest rupture force [7]: < 140 pN | initial probability of the high-affinity state (two-state fit) [7]: 0.0063 | peak of the strong rupture forces [7]: 70 to 80 pN

RGDFK (also: cyclic, ring type not given here) [cyclic RGDFK peptide]
cumulative binding probability of αIIbβ3 to fibrinogen with cRGDFK present, rupture forces 30–60 pN [1]: 2.5% | cumulative binding probability of αIIbβ3 to fibrinogen with cRGDFK present, rupture forces >60 pN [1]: 0.3% | cumulative binding probability of αIIbβ3 to m-fibrin with cRGDFK present, rupture forces 30–60 pN [2]: 5.1% | cumulative binding probability of αIIbβ3 to m-fibrin with cRGDFK present, rupture forces >60 pN [2]: 2.7% | cumulative binding probability of αIIbβ3 to p-fibrin with cRGDFK present, rupture forces 30–60 pN [3]: 2.2% | cumulative binding probability of αIIbβ3 to p-fibrin with cRGDFK present, rupture forces >60 pN [3]: 0.6%
